Assay results published in patent US20250283871A1, “COMPOSITIONS AND METHODS FOR MODULATING THE INTERACTION BETWEEN SS18-SSX FUSION ONCOPROTEIN AND NUCLEOSOMES” (Dana-Farber Cancer Institute, Inc., priority 2020, published 2025).
Where a chain is given by its changes, count along the chain named. Names may count otherwise.

B1: BCL7B: BAF complex subunit quantified in the IP MS (protein, UniProt Q9BQE9 1-202, looked up)
B-cell CLL/lymphoma 7 protein …: MSGRSVRAETRSRAKDDIKKVMAAIEKVRKWEKKWVTVGDTSLRIFKWVPVTDSKEKEKSKSNSSAAREPNGFPSDASANSSLLLEFQDENSNQSSVSDVYQLKVDSSTNSSPSPQQSESLSPAHTSDFRTDDSQPPTLGQEILEEPSLPSSEVADEPPTLTKEEPVPLETQVVEEEEDSGAPPLKRFCVDQPTVPQTASES
B2: WT RING1B: wild-type RING1B re-expressed in RING1A/1B-dKO cells (protein, UniProt Q99496 2-336, looked up)
E3 ubiquitin-protein ligase …: SQAVQTNGTQPLSKTWELSLYELQRTPQEAITDGLEIVVSPRSLHSELMCPICLDMLKNTMTTKECLHRFCADCIITALRSGNKECPTCRKKLVSKRSLRPDPNFDALISKIYPSRDEYEAHQERVLARINKHNNQQALSHSIEEGLKIQAMNRLQRGKKQQIENGSGAEDNGDSSHCSNASTHSNQEAGPSNKRTKTSDDSGLELDNNNAAMAIDPVMDGASEIELVFRPHPTLMEKDDSAQTRYIKTSGNATVDHLSKYLAVRLALEELRSKGESNQMNLDTASEKQYTIYIATASGQFTVLNGSFSLELVSEKYWKVNKPMELYYAPTKEHK
B3: R91E: ligase-deficient RING1 point mutant, E2 binding interface (protein, UniProt Q99496 2-336, looked up, variant R91E)
E3 ubiquitin-protein ligase …: B2 E3 ubiquitin-protein ligase … with R90E
B4: I53A: widely-used RING1B I53A mutant (protein, UniProt Q99496 2-336, looked up, variant I53A)
E3 ubiquitin-protein ligase …: B2 E3 ubiquitin-protein ligase … with I52A
B5: I53A/D56K: RING1B point mutant disrupting the E2 binding interface (protein, UniProt Q99496 2-336, looked up, variant I53A D56K)
E3 ubiquitin-protein ligase …: B2 E3 ubiquitin-protein ligase … with I52A, D55K

How the values were obtained:
Type in all cases: cell-based, human
BAF complex components = assay: anti-SMARCA4 (BRG1) IP mass spectrometry (Tables 7A-7C); conditions: Aska-SS cells -/+ shSSX
Description: Peptide abundance normalized to SMARCA4 abundance. […] SMARCC1, SS18, GFP, SMARCB1, and TBP levels are shown. […] T indicates 0-40 min timecourse; n=3 experimental replicates at each time point; error bars represent standard deviation.
Nuclear extracts were quantified by Bradford assay and 150-200 μg of protein was incubated with 2 μg of antibody in Buffer EB300 (50 mM Tris pH 7.5, 0.1% NP-40, 1 mM EDTA, 1 mM MgCl2, […] with protease inhibitor (Roche, C756U27), 1 mM DTT and 1 mM phenylmethylsulfonyl fluoride (PMSF)) overnight at 4° C. Each sample was then incubated with Protein G Dynabeads® (Thermo Scientific) for 2-3 hours. Beads were washed three times with Buffer EB300 followed by elution with 20 μL of elution buffer (NuPage™ LDS buffer (2×) (Life Technologies) containing 100 mM DTT and water).

Barr bodies (inactive X) = assay: Immunofluorescence, Barr body localization; conditions: RING1A/1B-dKO HEK-293T cells
Description: Immunofluorescent images were obtained as previously described (Daou et al. (2011) Pro. Nat. Acad. Sci. U.S.A 108:2747-2752). Following lentiviral infection and/or drug treatment, cells were prepared by fixation in 3% PFA-PBS and then were permeabilized with PBS 0.1% NP40. Following incubation with primary antibodies, the Anti-rabbit Alexa Fluor® 594 and Anti-mouse Alexa Fluor® 488 (Life Technologies) secondary antibodies were used for visualization. Staining with 4′,6-diamidino-2-phenylindole (DAPI) was used to visualize nuclei. Images were acquired using Zeiss Axio Imager Z2 microscope and images were processed using ImageJ program (NIH).

H2A K119Ub = assay: Immunoblot of H2A K119Ub deposition in RING1A/B dKO 293T cells rescued with RING1B variants; conditions: RING1A/1B-dKO HEK-293T cells
Description: Detection of proteins by western blot (WB) analysis was achieved using standard protocols with primary antibodies (Table 4). […] The membranes were then blocked in 5% milk and incubated with primary antibody in PBST over night at 4° C. Following incubation with the primary antibody, membranes were washed 3× in PBST, incubated with IRDye® (LI-COR Biosciences) secondary antibodies for 3 hours, washed 3× in PBST with a final PBS wash, and then visualized by the LI-COR Odyssey® Imaging System (LI-COR Biosciences).

Row | Molecule | Aska (shControl)/Aska (shSS18-SSX) LFQ Intensity (Norm to SMARCA4 Rep 1) (BAF complex components; Rep 1) | Aska (shControl)/Aska (shSS18-SSX) LFQ Intensity (Norm to SMARCA4 Rep 2) (BAF complex components; Rep 2) | SS18-SSX / SSX localization after RING1B rescue (Barr bodies (inactive X)) | H2A ubiquitination (H2A K119Ub)
1 | B1 | 1.339 | 1.126 |  | 
2 | B2 |  |  | able to completely rescue SSX localization | 
3 | B3 |  |  | unable to recruit SS18-SSX | 
4 | B4 |  |  | little effect on SSX targeting | only partially attenuated H2A ubiquitination
5 | B5 |  |  | unable to recruit SS18-SSX | 
